Like-named read-outs stand apart in the source and are kept apart here.
Experiments:
Test in all cases: co-IP
[1] = molecular target: calnexin (canine pancreas microsomes) (dog (endogenous in canine pancreas microsomes)) (UniProt P24643)
[2] = molecular target: calreticulin (canine pancreas microsomes) (dog (endogenous in canine pancreas microsomes)) (UniProt P28490)
[3] = molecular target: calnexin (canine pancreas microsomes) (dog (endogenous in canine pancreas microsomes)) (UniProt P24643); remark: listed apart in the source
[4] = molecular target: calreticulin (canine pancreas microsomes) (dog (endogenous in canine pancreas microsomes)) (UniProt P28490); remark: listed apart in the source

Sequence of UniProt P24643 (P24643 21-593): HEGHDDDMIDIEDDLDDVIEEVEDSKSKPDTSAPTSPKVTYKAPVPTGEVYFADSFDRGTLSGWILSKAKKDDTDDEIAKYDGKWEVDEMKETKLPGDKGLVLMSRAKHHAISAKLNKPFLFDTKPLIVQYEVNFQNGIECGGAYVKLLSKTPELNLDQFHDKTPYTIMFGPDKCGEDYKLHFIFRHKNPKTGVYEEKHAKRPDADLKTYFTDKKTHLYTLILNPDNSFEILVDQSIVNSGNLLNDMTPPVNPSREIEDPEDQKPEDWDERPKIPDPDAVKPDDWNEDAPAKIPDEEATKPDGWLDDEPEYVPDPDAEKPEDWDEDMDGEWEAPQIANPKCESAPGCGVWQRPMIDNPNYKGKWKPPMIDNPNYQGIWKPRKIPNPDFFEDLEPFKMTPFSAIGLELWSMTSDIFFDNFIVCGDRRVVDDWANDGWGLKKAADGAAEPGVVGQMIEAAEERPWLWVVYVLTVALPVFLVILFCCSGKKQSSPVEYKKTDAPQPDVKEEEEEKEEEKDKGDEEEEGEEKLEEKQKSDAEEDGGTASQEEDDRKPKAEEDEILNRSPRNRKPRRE

Substance	percent of HA coprecipitated [1] [%]	percent of HA coprecipitated [2] [%]	binding ratio of the IT2 form (IT1 = 1.0, normalised to anti-HA precipitations) [3]	binding ratio of the NT form (IT1 = 1.0, normalised to anti-HA precipitations) [3]	percent of HA in calnexin–HA complexes without calreticulin [3] [%]	percent of HA in ternary complexes with m2 and m3 [3] [%]	binding ratio of the IT2 form (IT1 = 1.0, normalised to anti-HA precipitations) [4]	binding ratio of the NT form (IT1 = 1.0, normalised to anti-HA precipitations) [4]	percent of HA coprecipitated [4] [%]	percent of HA in calreticulin–HA complexes without calnexin [4] [%]	percent of HA in ternary complexes with m2 and m3 [4] [%]
anchor-free, truncated, soluble form of HA (domain or fragment)	54	50	–	–	–	–	–	–	–	–	–
influenza virus hemagglutinin (HA), wild type, X31 (natural protein)	82	50	0.65	0.63	8	40	0.57	0.16	45	10	40

Source: PMC2141715
